The target in assay [1] is dsRed-tagged RetGC1 (human) (UniProt Q02846). In words: ratio of GFP and dsRed tag fluorescence in co-transfected cells.
Assay [2] concerns the target R838S RetGC1 (human) (UniProt Q02846). In words: co-localisation of GCAP1-GFP with RetGC1 in co-transfected cells.
The target of assay [3] is wild type recombinant human RetGC1 (human) (UniProt Q02846). Described as above.

As to “GFP-tagged bovine GCAP1 (from UniProt P46065 1-205) (natural protein)”, the stoichiometry N (GCAP1 per RetGC1) in assay [1] stood at 0.86. The stoichiometry N in assay [1] (scale: molar ratio between the two proteins at saturation) turned out to be 1.01. In addition, the cell:nucleus GCAP1-GFP fluorescence intensity ratio in assay [2] stood at 9.3; in assay [3], 10.6.

In general, stoichiometry N refers to the number of molecules, sites or subunits per partner or assembly.
